Assay [1] concerns the target T1, human Nerve Growth Factor (human, UniProt P01138 122-241). Put plainly: cell-based or functional assay.
Assay [2] concerns the target NGF (species not stated at the place) (Homo sapiens (Human), UniProt P01138 122-241). Put plainly: cell-based or functional assay.
The target of another assay is T2, rat Nerve Growth Factor (rat, UniProt P25427 122-241, limits assumed).
T2 construct: Bought recombinant protein; also called rNGF; rat NGF
Put plainly: SPR (Biacore 8K), fusion captured on Protein A chip. As for the experimental part:
(§1) Binding affinity of fusion proteins to human and rat NGF was assessed using Biacore 8K (Cytiva). Briefly, Protein A Sensor Chip (Cytiva) was docked into Biacore 8K, equilibrated for 30′ at RT and then Running Buffer (10 mM HEPES pH7.4 150 mM NaCl 3 mM EDTA and 0.005% Tween20) was applied to the SPR chip surface.
(§2) These were immobilised using 90 see association at 10 uL/min as capturing step, followed by injection of running buffer to remove any unbound product.
(§3) Kinetics were assessed using multi-cycle kinetics with capture step method (30 see association-300 see dissociation) followed by regeneration step (0.1M Glycine pH2.2 contact time 60 see FR 30 uL/min). Kinetics quantification have been performed using Biacore Insight following standard analyses methods.
(In general: SPR reads the build-up and loss of mass on a sensor chip optically.)

The target in assay [3] is T1, human Nerve Growth Factor. As to the kind of experiment: SPR (Biacore 8K), fusion captured on Protein A chip, hNGF as analyte, multi-cycle kinetics. As for the experimental part: as §1, §2, §3
The target of assay [4] is T1, human Nerve Growth Factor. Put plainly: SPR (Biacore 8K), fusion captured on Protein A chip. The method, then: as §1, §2, §3
Assay [5] deals with NGF (species not stated at the place) (Homo sapiens (Human)) (UniProt P01138). Put plainly: cell-based or functional assay.
For assay [6] the target is unchanged. Put plainly: cell-based or functional assay. The source holds these as a separate data set.

Read-outs that look alike come from different tables or passages of the source.

T2 sequence (P25427 122-241 limits assumed): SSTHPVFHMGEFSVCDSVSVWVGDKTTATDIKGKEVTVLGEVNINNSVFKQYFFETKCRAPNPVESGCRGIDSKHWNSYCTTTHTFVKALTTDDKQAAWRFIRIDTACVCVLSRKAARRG
T1 sequence (P01138 122-241 limits assumed): as the sequence (P25427 122-241 limits assumed) above, with T3S, V6I, M9R, T37M, A60D, E65D, T92M, D94G, A117V, G120A counted along it

B1: PetML 119-S109Y (canine p75NTR ECD S109Y-canine IgGB wt Fc) (Fc fusion)
chain: KEACPTGLYTHSGECCKACNLGEGVAQPCGANQTVCEPCLDSVTFSDVVSATEPCKPCTECVGLQSMSAPCVEADDAVCRCAYGYYQDETTGRCEACRVCEAGSGLVFYCQDRQNTVCEECPDGTYSDEANHVDPCLPCTVCEDTERQLRECTRWADAECEEIPGRGGGGRENGRVPRPPDCPKCPAPEMLGGPSVFIFPPKPKDTLLIARTPEVTCVVVDLDPEDPEVQISWFVDGKQMQTAKTQPREEQFNGTYRVVSVLPIGHQDWLKGKQFTCKVNNKALPSPIERTISKARGQAHQPSVYVLPPSREELSKNTVSLTCLIKDFFPPDIDVEWQSNGQQEPESKYRTTPPQLDEDGSYFLYSKLSVDKSRWQRGDTFICAVMHEALHNHYTQKSLSHSPGK
notes: Signal peptide (first 19 residues) left out as for m1
Consider B1, for which, in assay [1], the “IC50 (nM), inhibition of TF-1 cell proliferation” value (“IC50 (nM), inhibition” below) came out at 2.15 nM and the “ICMAX (%), inhibition of TF-1 cell proliferation” value (shortened to “ICMAX (%), inhibition”) worked out at 93.5%. Further, in assay [2], the “Bottom (%), PathHunter TrkA activation assay” value (“Bottom (%)” for short) is 7.79%; the “IC50 (nM), PathHunter TrkA activation assay” value came out at 2.15 nM; the “Top (%), PathHunter TrkA activation assay” value (from here on “Top (%)”) amounted to 87.3%. Further, in the assay with rat Nerve Growth Factor, the binding result is “binds”. Besides, the affinity in assay [3], expressed as Kd, was 0.225 nM.

B2: PetML 119-D134L (canine p75NTR ECD D134L-canine IgGB wt Fc) (Fc fusion)
chain: KEACPTGLYTHSGECCKACNLGEGVAQPCGANQTVCEPCLDSVTFSDVVSATEPCKPCTECVGLQSMSAPCVEADDAVCRCAYGYYQDETTGRCEACRVCEAGSGLVFSCQDRQNTVCEECPDGTYSDEANHVLPCLPCTVCEDTERQLRECTRWADAECEEIPGRGGGGRENGRVPRPPDCPKCPAPEMLGGPSVFIFPPKPKDTLLIARTPEVTCVVVDLDPEDPEVQISWFVDGKQMQTAKTQPREEQFNGTYRVVSVLPIGHQDWLKGKQFTCKVNNKALPSPIERTISKARGQAHQPSVYVLPPSREELSKNTVSLTCLIKDFFPPDIDVEWQSNGQQEPESKYRTTPPQLDEDGSYFLYSKLSVDKSRWQRGDTFICAVMHEALHNHYTQKSLSHSPGK
notes: as for B1
For B2, in assay [1], the “IC50 (nM), inhibition” value amounted to 329 nM and the “ICMAX (%), inhibition” value came out at 70.5%. In assay [2], the “Bottom (%)” value amounted to 53.7%; the “IC50 (nM), PathHunter TrkA activation assay” value was found to be 20.8 nM; the “Top (%)” value worked out at 82.7%. In addition, in assay [4], the “fold reduced affinity relative to PetML 119 wt” value turned out to be 20 fold. In addition, the affinity in assay [3], expressed as Kd, was 6.8 nM.

B3: PetML 119-E75T (canine p75NTR ECD E75T-canine IgGB wt Fc) (Fc fusion)
chain: KEACPTGLYTHSGECCKACNLGEGVAQPCGANQTVCEPCLDSVTFSDVVSATEPCKPCTECVGLQSMSAPCVEATDAVCRCAYGYYQDETTGRCEACRVCEAGSGLVFSCQDRQNTVCEECPDGTYSDEANHVDPCLPCTVCEDTERQLRECTRWADAECEEIPGRGGGGRENGRVPRPPDCPKCPAPEMLGGPSVFIFPPKPKDTLLIARTPEVTCVVVDLDPEDPEVQISWFVDGKQMQTAKTQPREEQFNGTYRVVSVLPIGHQDWLKGKQFTCKVNNKALPSPIERTISKARGQAHQPSVYVLPPSREELSKNTVSLTCLIKDFFPPDIDVEWQSNGQQEPESKYRTTPPQLDEDGSYFLYSKLSVDKSRWQRGDTFICAVMHEALHNHYTQKSLSHSPGK
notes: as for B1
In the case of B3, in assay [1], the “IC50 (nM), inhibition” value was found to be 18.2 nM and the “ICMAX (%), inhibition” value was 72.5%. In assay [2], the “Bottom (%)” value was 44.5%; the “IC50 (nM), PathHunter TrkA activation assay” value turned out to be 82.6 nM; the “Top (%)” value was 72.6%. For the same molecule, in assay [4], the “fold reduced affinity relative to PetML 119 wt” value was 40 fold. Also, the affinity in assay [3], expressed as Kd, was 12.4 nM.

B4: PetML 119-V133R (canine p75NTR ECD V133R-canine IgGB wt Fc) (Fc fusion)
chain: KEACPTGLYTHSGECCKACNLGEGVAQPCGANQTVCEPCLDSVTFSDVVSATEPCKPCTECVGLQSMSAPCVEADDAVCRCAYGYYQDETTGRCEACRVCEAGSGLVFSCQDRQNTVCEECPDGTYSDEANHRDPCLPCTVCEDTERQLRECTRWADAECEEIPGRGGGGRENGRVPRPPDCPKCPAPEMLGGPSVFIFPPKPKDTLLIARTPEVTCVVVDLDPEDPEVQISWFVDGKQMQTAKTQPREEQFNGTYRVVSVLPIGHQDWLKGKQFTCKVNNKALPSPIERTISKARGQAHQPSVYVLPPSREELSKNTVSLTCLIKDFFPPDIDVEWQSNGQQEPESKYRTTPPQLDEDGSYFLYSKLSVDKSRWQRGDTFICAVMHEALHNHYTQKSLSHSPGK
notes: as for B1
With B4, in assay [1], the “IC50 (nM), inhibition” value is 5.06 nM and the “ICMAX (%), inhibition” value was 80.5%. Moreover, in assay [2], the “Bottom (%)” value was found to be 14.3%; the “IC50 (nM), PathHunter TrkA activation assay” value stood at 2.56 nM; the “Top (%)” value is 49.3%. In addition, the binding result with rat Nerve Growth Factor is given as “binds”. Moreover, the Kd (commonly the equilibrium constant for the complex coming apart) in assay [3] stood at 0.346 nM.

B5: PetML 119-S109H (canine p75NTR ECD S109H-canine IgGB wt Fc) (Fc fusion)
chain: KEACPTGLYTHSGECCKACNLGEGVAQPCGANQTVCEPCLDSVTFSDVVSATEPCKPCTECVGLQSMSAPCVEADDAVCRCAYGYYQDETTGRCEACRVCEAGSGLVFHCQDRQNTVCEECPDGTYSDEANHVDPCLPCTVCEDTERQLRECTRWADAECEEIPGRGGGGRENGRVPRPPDCPKCPAPEMLGGPSVFIFPPKPKDTLLIARTPEVTCVVVDLDPEDPEVQISWFVDGKQMQTAKTQPREEQFNGTYRVVSVLPIGHQDWLKGKQFTCKVNNKALPSPIERTISKARGQAHQPSVYVLPPSREELSKNTVSLTCLIKDFFPPDIDVEWQSNGQQEPESKYRTTPPQLDEDGSYFLYSKLSVDKSRWQRGDTFICAVMHEALHNHYTQKSLSHSPGK
notes: Signal peptide left out as for m1; If the listing holds it too, the entry is 425 residues long
B5: in assay [1], the “IC50 (nM), inhibition” value is 0.17 nM and the “ICMAX (%), inhibition” value was 88.5%. For the same molecule, in assay [2], the “Bottom (%)” value stood at 10.3%; the “IC50 (nM), PathHunter TrkA activation assay” value was 2.2 nM; the “Top (%)” value was 48.3%. For the same molecule, the binding result in the assay with rat Nerve Growth Factor was “binds”. The Kd in assay [3] is 0.267 nM.

B6: Bedinvetmab (antibody, INN chains, looked up, V domains shown)
VH: EVQLVESGGDLVKPGGSLRLSCVASGFTFSSHGMHWVRQSPGKGLQWVAVINSGGSSTYYTDAVKGRFTISRDNAKNTVYLQMNSLRAEDTAMYYCAKESVGGWEQLVGPHFDYWGQGTLVIVSS
VL: QSVLTQPTSVSGSLGQRVTISCSGSTNNIGILGASWYQLFPGKAPKLLVYGNGNRPSGVPDRFSGADSGDSVTLTITGLQAEDEADYYCQSFDTTLGAHVFGGGTHLTVL
As for B6, in assay [5], the Bottom (%), PathHunter TrkA activation assay worked out at 2.11% and the Top (%), PathHunter TrkA activation assay came out at 93.5%. In assay [6], this molecule returned a Bottom (%), PathHunter TrkA activation assay of 5.35%; a Top (%), PathHunter TrkA activation assay of 123%; a TrkA inhibition, PathHunter luminescence of 100%.

B7: PetML 119 (canine p75NTR ECD-canine IgGB wt Fc protein fusion) (Fc fusion)
chain: KEACPTGLYTHSGECCKACNLGEGVAQPCGANQTVCEPCLDSVTFSDVVSATEPCKPCTECVGLQSMSAPCVEADDAVCRCAYGYYQDETTGRCEACRVCEAGSGLVFSCQDRQNTVCEECPDGTYSDEANHVDPCLPCTVCEDTERQLRECTRWADAECEEIPGGGGRENGRVPRPPDCPKCPAPEMLGGPSVFIFPPKPKDTLLIARTPEVTCVVVDLDPEDPEVQISWFVDGKQMQTAKTQPREEQFNGTYRVVSVLPIGHQDWLKGKQFTCKVNNKALPSPIERTISKARGQAHQPSVYVLPPSREELSKNTVSLTCLIKDFFPPDIDVEWQSNGQQEPESKYRTTPPQLDEDGSYFLYSKLSVDKSRWQRGDTFICAVMHEALHNHYTQKSLSHSPGK
notes: The end, 422, is my own count; also called WT molecule
For the molecule B7, in assay [1], the “IC50 (nM), inhibition” value was 4.46 nM and the “ICMAX (%), inhibition” value is 73.1%. Moreover, in assay [2], the “Bottom (%)” value came out at 9.5% and the “IC50 (nM), PathHunter TrkA activation assay” value amounted to 8.04 nM. Also, the binding result in the assay with rat Nerve Growth Factor is on record as “binds”. This molecule also gave a Kd in assay [3] of 0.309 nM.

(Values after patent US20240270818A1 (PETMEDIX, published 2024).)
